{
  "source": "patent US20220347267A1",
  "about": "“METHODS TO IMPROVE PATIENT RESPONSE TO IMMUNE CHECKPOINT INHIBITORS AND FUNCTIONAL TESTS TO PREDICT RESPONSE” (Biomarker Strategies, LLC, priority 2019, published 2022)",
  "molecules": {"B1": {"name": "IFNγ: human IFNγ, modulator (10 ng/ml; Sigma Aldrich) (protein, UniProt P01579 24-161, looked up)", "Interferon gamma": "QDPYVKEAENLKKYFNAGHSDVADNGTLFLGILKNWKEESDRKIMQSQIVSFYFKLFKNFKDDQSIQKSVETIKEDMNVKFFNSNKKKRDDFEKLTNYSVTDLNVQRKAIHELIQVMAELSPAAKTGKRKRSQMLFRG"}},
  "type_in_all_cases": "cell-based, human",
  "key": {"[1]": {"tested_on": "H1299 cells", "experiment": "PD-L1 flow cytometry, IFNγ modulation", "protocol": "(§1) Samples (150 uL per tube) were first incubated with a blocking reagent at 1:20 for 15 min at room temperature. Alexa 488-conjugated PD-L1 antibody (CST cat #25048, Lot #2) and Alexa 488-conjugated isotype antibody (CST cat #2975, Lot #16) were added to experimental samples and isotype control samples, respectively, at a manufacturer recommended dilution of 1:50 and the samples were incubated for 30 min at room temperature. Other fluorophore-conjugates and PD-L1 antibodies, including those targeting different epitopes, can be readily used. Additionally, antibodies detecting other biomarkers with appropriate processing (e.g. permeabilization of cells) to predict response (e.g. p-STAT-1) can be used. Following the incubation with an antibody, 1 mL of 2% FBS in PBS was added to each tube to dilute the antibody. Samples were then centrifuged at 200 rcf for 5 min. Supernatant was carefully aspirated and 200 uL of 10% neutral buffered formalin (NBF) was added. Samples were then fixed for 10 min at room temperature. NBF was diluted with 1 mL of 2% FBS in PBS and the samples were centrifuged at 200 rcf for 5 min. Supernatant was aspirated and the cells were resuspended in 0.5 mL of 2% FBS in PBS for flow cytometric analysis. In this experiment, 10% NBF was used to fix cells, but other fixatives, for example, 4% paraformaldehyde can be used.\n(§2) Flow cytometry was performed using BDTM LSR II cytometer and BD FACSDiva™ data acquisition software. Any commercially available flow cytometry analysis software can be used, such as FlowJo (BD) and FCS Express (De Novo Software). Additionally, other flow cytometry instruments can be readily used. A total of 20,000 events were recorded for each sample. A Scatter gate was first applied, and a singlet gate was then applied on the scatter population to exclude doublet population. A 488 nm blue laser and a 530 nm detector were used to capture PD-LL signal. Any signal above the isotype control signal of the singlet population was considered PD-L1+(see FIG. 33). Though it was excluded from this experiment, cell viability can be assessed, and dead cells excluded from analysis, using stains such as Live/Dead™ Fixable Dead Cell Stain (Thermo) for fixed cells, or either 7-AAD (7-Aminoactinomycin D) or Propidium Iodide for unfixed cells.\n(§3) A percent change in PD-L1+ events between Untreated (non-modulated; vehicle control) and Treated (modulated with IFNγ) samples was calculated for each of the four cell lines tested (Table 2). […] A percent change in PD-L1 signal between Untreated and Treated samples was calculated for each of the four cell lines tested. […] The mean PD-L1 signal was used to calculate the percent change, however, median (as shown in FIGS. 34A-34H), geometric mean, mode or any other averaging method can also be used. To assess the difference in PD-L1 expression level or number of PD-L1+ events between Treated and Untreated samples, either a percent change or fold change can be calculated. Differences in PD-L1 expression level can also be assessed between a control sample with a known PD-L1 level and a clinical sample with an unknown PD-L1 level. To do so, the assay result of modulated and unmodulated clinical samples should be normalized to that of a control sample. A percent change or fold change between modulated and unmodulated samples can then be calculated using the normalized values. Baseline PD-L1 levels, as well as changes to PD-L1 upon modulation, can be used to predict response to therapy. As mentioned in the Methods section above, the antibody against PD-L1 used in this experiment targets extracellular portion of the PD-L1 molecule and as such, permeabilization was not performed. Antibodies such as those that target other PD-L1 domains would yield different PD-L1 expression patterns depending on the form(s) of PD-L1 present in the cell lines tested. Flow cytometry cannot detect PD-L1 molecules that are already secreted and not bound to other cell surfaces proteins. […]"}, "[2]": {"tested_on": "H1650 cells", "experiment": "PD-L1 flow cytometry, IFNγ modulation", "protocol": "as §1, §2, §3"}, "[3]": {"tested_on": "H460 cells", "experiment": "PD-L1 flow cytometry, IFNγ modulation", "protocol": "as §1, §2, §3"}, "[4]": {"tested_on": "SKMES1 cells", "experiment": "PD-L1 flow cytometry, IFNγ modulation", "protocol": "as §1, §2, §3"}, "[5]": {"tested_on": "SKMES1 cells", "experiment": "Western blot of secreted and intact PDL1 in media and lysate", "settings": "10 ng/mL IFNg for 24 h, concentrated media and lysate, antibody clone E1J2J", "protocol": "Different forms of PDL1 can be expressed at baseline as well as after modulation, and the abundance of each form will impact response to therapy. The two major forms are membrane bound and soluble (secreted or intracellular compartments). The relative ratios of the forms, and their cellular locations, can be changed by a modulator and will require different strategies for optimal ICI therapy. As way of example, the cell line SKMES1 was treated with vehicle or 10 ng/mL IFNg for 24 h. After treatment, media was collected and concentrated using an Amicon ultra 0.5 mL centrifugal filter with a 10 kDa cutoff. The retentate, containing proteins >10 kDa, was recovered in a clean tube at 14000 rpm for 5 min. Simultaneously, lysates of the same cells were made. PDL1 was then detected using 10% Tris-Glycine SDS gels and PVDF membranes. The western blot was carried out using 5% non-fat dry milk in TBST for 1h, followed by incubation with primary antibody against PDL1 (clone E1J2J; raised to the extracellular portion of PDL1) in 2% BSA for overnight, then anti-rabbit HRP secondary antibody before using a chemiluminescent reagent (Bio-Rad). […] Thus, by using westerns where the intact and secreted forms of PDL1 are first resolved by MW and different types of sample/resource material (media vs lysate or blood/plasma vs tumor), the response to therapy can be predicted. […]"}, "[6]": {"settings": "modulated with IFNγ, 20,000 events recorded"}},
  "data": [
    {"molecule": "B1", "values": [
      {"measurement": "Mean PD-L1 signal in Singlets, % change (Treated - Untreated)/Untreated", "setting": "[1]; IFNγ treated vs untreated", "result": 24, "unit": "%"},
      {"measurement": "Mean PD-L1 signal in Singlets, Fold change (Treated/Untreated)", "setting": "[1]; IFNγ treated vs untreated", "result": 1.24},
      {"measurement": "Number of Events in PD-L1 + population, % change (Treated - Untreated)/Untreated", "setting": "[1]; IFNγ treated vs untreated", "result": 71, "unit": "%"},
      {"measurement": "Number of Events in PD-L1 + population, Fold change (Treated/Untreated)", "setting": "[1]; IFNγ treated vs untreated", "result": 1.71},
      {"measurement": "Mean PD-L1 signal in Singlets, Treated", "setting": "[1]; modulated with IFNγ", "result": 538},
      {"measurement": "Number of Events in PD-L1 + population, Treated", "setting": "[1]; [6]", "result": 3462},
      {"measurement": "Mean PD-L1 signal in Singlets, % change (Treated - Untreated)/Untreated", "setting": "[2]; IFNγ treated vs untreated", "result": 63, "unit": "%"},
      {"measurement": "Mean PD-L1 signal in Singlets, Fold change (Treated/Untreated)", "setting": "[2]; IFNγ treated vs untreated", "result": 1.63},
      {"measurement": "Number of Events in PD-L1 + population, % change (Treated - Untreated)/Untreated", "setting": "[2]; IFNγ treated vs untreated", "result": 266, "unit": "%"},
      {"measurement": "Number of Events in PD-L1 + population, Fold change (Treated/Untreated)", "setting": "[2]; IFNγ treated vs untreated", "result": 3.66},
      {"measurement": "Mean PD-L1 signal in Singlets, Treated", "setting": "[2]; modulated with IFNγ", "result": 714},
      {"measurement": "Number of Events in PD-L1 + population, Treated", "setting": "[2]; [6]", "result": 5883},
      {"measurement": "Mean PD-L1 signal in Singlets, % change (Treated - Untreated)/Untreated", "setting": "[3]; IFNγ treated vs untreated", "result": 20, "unit": "%"},
      {"measurement": "Mean PD-L1 signal in Singlets, Fold change (Treated/Untreated)", "setting": "[3]; IFNγ treated vs untreated", "result": 1.20},
      {"measurement": "Number of Events in PD-L1 + population, % change (Treated - Untreated)/Untreated", "setting": "[3]; IFNγ treated vs untreated", "result": 4, "unit": "%"},
      {"measurement": "Number of Events in PD-L1 + population, Fold change (Treated/Untreated)", "setting": "[3]; IFNγ treated vs untreated", "result": 1.04},
      {"measurement": "Mean PD-L1 signal in Singlets, Treated", "setting": "[3]; modulated with IFNγ", "result": 1646},
      {"measurement": "Number of Events in PD-L1 + population, Treated", "setting": "[3]; [6]", "result": 13382},
      {"measurement": "Mean PD-L1 signal in Singlets, % change (Treated - Untreated)/Untreated", "setting": "[4]; IFNγ treated vs untreated", "result": 22, "unit": "%"},
      {"measurement": "Mean PD-L1 signal in Singlets, Fold change (Treated/Untreated)", "setting": "[4]; IFNγ treated vs untreated", "result": 1.22},
      {"measurement": "Number of Events in PD-L1 + population, % change (Treated - Untreated)/Untreated", "setting": "[4]; IFNγ treated vs untreated", "result": 3, "unit": "%"},
      {"measurement": "Number of Events in PD-L1 + population, Fold change (Treated/Untreated)", "setting": "[4]; IFNγ treated vs untreated", "result": 1.03},
      {"measurement": "Mean PD-L1 signal in Singlets, Treated", "setting": "[4]; modulated with IFNγ", "result": 4228},
      {"measurement": "Number of Events in PD-L1 + population, Treated", "setting": "[4]; [6]", "result": 1772},
      {"measurement": "expression of secreted and intact PDL1", "setting": "[5]", "result": "detected the expression of secreted and intact PDL1"}
    ]}
  ]
}
